Laboratory results taken from patent publication US20070004628A1 (SALK INSTITUTE FOR BIOLOGICAL STUDIES, published 2007).

Target: T1, p75 (endogenous, mouse) (Mus musculus, UniProt Q9Z0W1 32-427)
T1 construct: Endogenous p75 of P7 mouse cerebellum and of cerebellar granule neurons; also called p75NTR
T1 sequence: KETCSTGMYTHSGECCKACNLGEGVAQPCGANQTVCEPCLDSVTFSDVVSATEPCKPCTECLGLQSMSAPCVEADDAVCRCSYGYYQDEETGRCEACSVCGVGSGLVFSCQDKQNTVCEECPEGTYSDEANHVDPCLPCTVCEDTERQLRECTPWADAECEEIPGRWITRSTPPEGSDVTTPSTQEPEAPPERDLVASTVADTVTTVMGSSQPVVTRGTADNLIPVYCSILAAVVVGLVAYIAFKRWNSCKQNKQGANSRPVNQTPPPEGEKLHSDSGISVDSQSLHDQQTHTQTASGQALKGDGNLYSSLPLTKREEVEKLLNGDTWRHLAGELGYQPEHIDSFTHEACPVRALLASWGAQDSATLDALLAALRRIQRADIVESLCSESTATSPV
Test: immunoprecipitation of P7 mouse cerebellar proteins with anti-p45 antibodies, immunoblot with anti-p75 antibodies

B1: full-length p45 (p45-FL) (receptor)
chain: MLYNVSKGVVYSDTALQGQDGDREGMWVGAGGALAPNTSSLFPPEPPGASSNIIPVYCALLATVILGLLAYVAFKCWRSHKQRQQLAKARTVELGDPDRDQRRGDSNVFVDSPPSLEPCIPSQGPHPDLGCQLYLHIPQQQQEEVQRLLMMGEPAKGWQELAGHLGYQAEAVETMACDQMPAYTLLRNWAAQEGNRATLRVLEDALAAIGREDVVQVLSSPAESSSVV
notes: Untagged full-length p45 expressed in HEK293 cells or from transfected capped RNA in CGNs; Also used here for endogenous p45 of P7 mouse cerebellum; also called PLAIDD; NRADD
binding result: binds
